Here are results for three molecules from publication PMC2330239 (Nucleic Acids Research, 2008).

Assay [1] addresses T1, GST fusion protein of the NCoA-1 PAS-B domain, hNCoA-1 (260–370) (human, UniProt Q15788 260-370).
T1 sequence: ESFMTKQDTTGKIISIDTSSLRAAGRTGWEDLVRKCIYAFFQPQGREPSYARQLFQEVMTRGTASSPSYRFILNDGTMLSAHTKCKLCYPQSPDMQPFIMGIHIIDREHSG
Briefly: pull-down.

Assay [2] has as its target T2, NCoA-1 PAS-B domain fragment 257–385 (human, UniProt Q15788 257-385).
T2 sequence: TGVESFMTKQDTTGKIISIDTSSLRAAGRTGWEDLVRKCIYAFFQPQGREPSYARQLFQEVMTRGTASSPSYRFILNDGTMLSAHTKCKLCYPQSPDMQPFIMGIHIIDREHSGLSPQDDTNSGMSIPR
Description: NMR titration.

B1: human STAT6 motif peptide, STAT6 (794–814) (peptide)
peptide: LLPPTEQDLTKLLLEGQGESG
For the molecule B1, the binding result in assay [1] and in assay [2] was “binds” each time.

B2: peptide representing LXXLL motif 4 of human NCoA-1 (peptide)
peptide: EDQCISSQLDELLCPPTTVEG
B2: the binding result in assay [1] and in assay [2] was “binds” in each case.

B3: peptide representing LXXLL motif 5 of human NCoA-1 (peptide)
peptide: EGRNDEKALLEQLVSFLSGKD
Regarding B3, the binding result in assay [1] and in assay [2] was “binds” each time.
